The data set has as its target T1, SmeT (UniProt Q8KLP4 1-219).
T1 sequence: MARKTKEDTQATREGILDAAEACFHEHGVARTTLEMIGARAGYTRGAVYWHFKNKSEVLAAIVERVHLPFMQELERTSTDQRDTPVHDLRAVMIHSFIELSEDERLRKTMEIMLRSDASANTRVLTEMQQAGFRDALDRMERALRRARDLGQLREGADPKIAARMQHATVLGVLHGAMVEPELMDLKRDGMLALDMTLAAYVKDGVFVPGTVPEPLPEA
In words: EMSA; 0.2 uM SmeT, 2 nM DNA, no triclosan, 10 mM MgCl2; EMSA: 10 mM Tris-HCl pH 7.2, 50 mM KCl, 10 mM MgCl2, 1 mM EDTA, 50 ug/ml BSA, 1 mM DTT, 5% glycerol, 100 ug/ml poly(dI-dC), room temperature 20 min (+15 min with biocide); 6% gel at 4 C. The settings on record: protein: recombinant; tags: none stated after intein-CBD self-cleavage (pTYB1); chain copies: 2; label: 5' 32P; blunt. (In general: A gel shift assay detects complexes by their altered migration in electrophoresis.)

Experimental findings from PMC3128119 are described below.

B1: 30-bp smeT operator (dsDNA)
DNA 1: GTTTACAAACAAACAAGCATGTATGTATAT
DNA 2: ATATACATACATGCTTGTTTGTTTGTAAAC
Take B1: the binding result is reported as “binds”.
